# From patent US20050203288A1 (DEUTSCHES KREBSFORSCHUNGSZENTRUM STIFUNG DES OFFENTLICHEN …, published 2005)
# T1: Livin-β (UniProt Q96CA5-2 1-280, limits assumed)
# T1 construct: the beta isoform is meant; also called Livin (beta)
# T1 sequence (looked up): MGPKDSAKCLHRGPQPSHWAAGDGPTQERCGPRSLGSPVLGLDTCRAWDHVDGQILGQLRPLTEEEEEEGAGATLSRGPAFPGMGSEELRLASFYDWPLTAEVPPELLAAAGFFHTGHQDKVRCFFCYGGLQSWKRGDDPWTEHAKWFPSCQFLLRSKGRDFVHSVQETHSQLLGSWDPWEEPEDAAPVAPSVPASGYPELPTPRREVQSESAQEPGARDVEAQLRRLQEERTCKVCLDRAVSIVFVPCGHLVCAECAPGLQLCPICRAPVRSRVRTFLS
# B1: peptide number 5 (peptide, not shown: large carriers)
# chain: GSRFRVFVCSLFSFLSGRGGGVVVLRSAEIYES
# notes: that construct is not described for linear peptides
# B2: peptide number 77 (peptide, not shown: large carriers)
# chain: GPFSEHARGHVVTICRLRLLFWLLRSAEIYES
# notes: as for B1
# B3: peptide number 75 (peptide, not shown: large carriers)
# chain: GSRCIRRRISILFFVFRVLRSRRVLRSAEIYES
# notes: as for B1
# B4: peptide number 7 (peptide, not shown: large carriers)
# chain: GPFKRCHERLVAFARCWFMWSMVLRSAEIYES
# notes: as for B1
# B5: peptide number 40 (peptide, not shown: large carriers)
# chain: GSGCVRIRVGIVRRMLFLRFVFLVP
# notes: as for B1
# B6: peptide number 90 (peptide, not shown: large carriers)
# chain: GPYPYLRILLVQKIACVRRALWVLRSAEIYES
# notes: as for B1
# B7: peptide number 15 (peptide, not shown: large carriers)
# chain: GSGCGCFVRGRIVRIRCVILLLRVLRSAEIYES
# notes: as for B1
# B8: peptide number 65 (peptide, not shown: large carriers)
# chain: GAGLGRVIRLRIVVLRCIFLLFRVLRSAEIYES
# notes: as for B1
# B9: peptide number 16 (peptide, not shown: large carriers)
# chain: GPHSSAHDRIWLRVRGLRIILLVLRSAEIYES
# notes: as for B1
# B10: peptide number 69 (peptide, not shown: large carriers)
# chain: GPFPFDYPRWIMIVLLRGVLRSAEIYES
# notes: as for B1
# B11: peptide number 54 (peptide, not shown: large carriers)
# chain: GPWWKDRGVLVRLCVLRLVVGVVLRSAEIYES
# notes: Mammalian two-hybrid construct not described for linear peptides
# Biological target: T2, Survivin (UniProt O15392 1-142)
# T2 construct: construct not described; also called surivin
# Assay: yeast two-hybrid
# T2 sequence (O15392 whole entry): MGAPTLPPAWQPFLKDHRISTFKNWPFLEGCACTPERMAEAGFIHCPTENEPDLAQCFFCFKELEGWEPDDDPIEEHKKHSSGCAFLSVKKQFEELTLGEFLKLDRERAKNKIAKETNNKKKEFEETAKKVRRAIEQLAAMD
row,Binder,binding result
1,B1,no binding
2,B2,no binding
3,B3,no binding
4,B4,no binding
5,B5,no binding
6,B6,no binding
7,B7,no binding
8,B8,no binding
9,B9,no binding
10,B10,no binding
11,B11,no binding

# Biological target: T3, c-IAP-2 (UniProt Q13489 1-604, limits assumed)
# T3 construct: construct not described; also called c-LAP-2
# Assay: yeast two-hybrid
# T3 sequence (Q13489 whole entry): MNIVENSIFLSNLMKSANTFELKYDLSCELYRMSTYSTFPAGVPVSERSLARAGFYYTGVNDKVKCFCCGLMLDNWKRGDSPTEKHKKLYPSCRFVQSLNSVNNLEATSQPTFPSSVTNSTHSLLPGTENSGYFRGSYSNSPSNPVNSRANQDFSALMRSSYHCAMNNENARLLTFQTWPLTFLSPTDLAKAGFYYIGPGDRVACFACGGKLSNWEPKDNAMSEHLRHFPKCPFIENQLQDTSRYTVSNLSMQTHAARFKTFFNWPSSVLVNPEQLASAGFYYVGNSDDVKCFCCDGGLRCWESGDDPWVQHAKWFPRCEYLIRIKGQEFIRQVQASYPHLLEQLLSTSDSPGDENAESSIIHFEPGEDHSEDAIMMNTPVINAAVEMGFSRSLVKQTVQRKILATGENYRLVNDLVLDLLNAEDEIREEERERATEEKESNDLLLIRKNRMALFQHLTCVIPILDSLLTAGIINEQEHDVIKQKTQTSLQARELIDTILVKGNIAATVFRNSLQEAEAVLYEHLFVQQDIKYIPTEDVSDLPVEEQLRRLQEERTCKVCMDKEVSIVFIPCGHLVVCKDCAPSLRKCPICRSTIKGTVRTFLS
row,Binder,binding result
1,B1,no binding
2,B2,no binding
3,B3,no binding
4,B4,no binding
5,B5,no binding
6,B6,no binding
7,B7,no binding
8,B8,no binding
9,B9,no binding
10,B10,no binding
11,B11,no binding

# Biological target: T4, c-IAP-1 (UniProt Q13490 1-618, limits assumed)
# T4 construct: construct not described
# Assay: yeast two-hybrid
# T4 sequence (Q13490 whole entry): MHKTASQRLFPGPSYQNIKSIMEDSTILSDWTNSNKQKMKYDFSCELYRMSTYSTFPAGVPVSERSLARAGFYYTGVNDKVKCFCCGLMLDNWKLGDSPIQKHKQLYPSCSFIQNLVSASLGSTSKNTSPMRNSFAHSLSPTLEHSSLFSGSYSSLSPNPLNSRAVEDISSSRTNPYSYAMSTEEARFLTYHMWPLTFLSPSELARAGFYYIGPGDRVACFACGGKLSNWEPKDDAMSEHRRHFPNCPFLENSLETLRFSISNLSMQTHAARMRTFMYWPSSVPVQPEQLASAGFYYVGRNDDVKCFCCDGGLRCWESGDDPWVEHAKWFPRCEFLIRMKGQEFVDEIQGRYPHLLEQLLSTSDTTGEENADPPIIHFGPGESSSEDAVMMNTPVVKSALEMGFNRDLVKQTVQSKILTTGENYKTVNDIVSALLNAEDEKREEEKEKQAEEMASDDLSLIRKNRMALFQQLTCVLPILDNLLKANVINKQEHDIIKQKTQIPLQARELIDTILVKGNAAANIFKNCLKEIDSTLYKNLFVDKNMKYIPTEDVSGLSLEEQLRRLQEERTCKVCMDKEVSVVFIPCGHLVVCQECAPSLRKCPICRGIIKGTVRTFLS
row,Binder,binding result
1,B1,no binding
2,B2,no binding
3,B3,no binding
4,B4,no binding
5,B5,no binding
6,B6,no binding
7,B7,no binding
8,B8,no binding
9,B9,no binding
10,B10,no binding
11,B11,no binding

# Biological target: T1, Livin-β
# Assay: yeast two-hybrid
row,Binder,binding result
1,B1,binds
2,B2,binds
3,B3,binds
4,B4,binds
5,B6,binds
6,B7,binds
7,B8,binds
8,B9,binds
9,B10,binds
10,B11,binds

# Biological target: T5, XIAP (UniProt P98170 1-497, limits assumed)
# T5 construct: construct not described
# Assay: yeast two-hybrid
# T5 sequence (P98170 whole entry): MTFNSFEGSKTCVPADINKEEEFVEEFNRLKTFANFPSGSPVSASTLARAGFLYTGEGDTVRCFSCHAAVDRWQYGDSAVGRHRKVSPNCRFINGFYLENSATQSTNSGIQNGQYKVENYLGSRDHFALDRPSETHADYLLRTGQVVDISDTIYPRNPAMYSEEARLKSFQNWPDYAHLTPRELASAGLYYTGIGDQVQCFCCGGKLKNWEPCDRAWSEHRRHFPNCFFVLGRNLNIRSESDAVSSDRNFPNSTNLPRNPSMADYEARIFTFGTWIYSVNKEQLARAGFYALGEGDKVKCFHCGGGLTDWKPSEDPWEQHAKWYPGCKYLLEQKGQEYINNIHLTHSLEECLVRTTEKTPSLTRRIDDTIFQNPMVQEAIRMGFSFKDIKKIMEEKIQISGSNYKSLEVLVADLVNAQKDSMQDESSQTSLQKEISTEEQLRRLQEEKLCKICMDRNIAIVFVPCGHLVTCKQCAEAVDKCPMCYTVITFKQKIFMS
row,Binder,binding result
1,B1,no binding
2,B2,binds
3,B3,no binding
4,B4,no binding
5,B5,no binding
6,B6,no binding
7,B7,no binding
8,B8,no binding
9,B9,no binding
10,B10,no binding
11,B11,no binding
